# The supplement of paper PMC9112550, “Optimization of the antimicrobial peptide Bac7 by deep mutational scanning” (BMC Biology, 2022)
# Tested on: Escherichia coli TOP10
# Test: shrunken log2 fold change of peptide-encoding DNA abundance (4.5 h post-induction vs induction); higher = less antimicrobial activity (less host growth inhibition)
# Conditions: time post-induction: 4.5 h; library: site-saturation at positions 5, 18, 19, 20
# 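Further: peptides expressed intracellularly from a pBAD plasmid library in pooled LB shake-flask culture, induced with 0.3% L-arabinose, DNA abundance read by NGS, three biological replicates, DESeq2 with apeglm shrinkage.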
row,Sequence,shrunken log2 fold change
1,RRIRDRPPRLPRPRPRPMSFPRP,-0.00238
2,RRIRDRPPRLPRPRPRPMSPPRP,0.0807
3,RRIRDRPPRLPRPRPRPMTEPRP,0.0462
4,RRIRDRPPRLPRPRPRPMTTPRP,-0.0624
5,RRIRDRPPRLPRPRPRPMVFPRP,-0.0423
6,RRIRDRPPRLPRPRPRPMVHPRP,0.234
7,RRIRDRPPRLPRPRPRPMWMPRP,0.149
8,RRIRDRPPRLPRPRPRPMWQPRP,0.00699
9,RRIRDRPPRLPRPRPRPMWTPRP,0.217
10,RRIRDRPPRLPRPRPRPMWYPRP,-0.0225
11,RRIRDRPPRLPRPRPRPNDFPRP,0.239
12,RRIRDRPPRLPRPRPRPNDRPRP,-0.12
13,RRIRDRPPRLPRPRPRPNFAPRP,0.605
14,RRIRDRPPRLPRPRPRPNFEPRP,0.282
15,RRIRDRPPRLPRPRPRPNIAPRP,0.169
16,RRIRDRPPRLPRPRPRPNIDPRP,0.068
17,RRIRDRPPRLPRPRPRPNKVPRP,-0.494
18,RRIRDRPPRLPRPRPRPNMFPRP,-0.0684
19,RRIRDRPPRLPRPRPRPNMSPRP,-0.0444
20,RRIRDRPPRLPRPRPRPNNEPRP,-0.526
21,RRIRDRPPRLPRPRPRPNNFPRP,-0.418
22,RRIRDRPPRLPRPRPRPNNIPRP,-0.558
23,RRIRDRPPRLPRPRPRPNNVPRP,-0.243
24,RRIRDRPPRLPRPRPRPNNYPRP,-0.542
25,RRIRDRPPRLPRPRPRPNPSPRP,0.13

row,Sequence,shrunken log2 fold change
1,RRIRDRPPRLPRPRPRPNRCPRP,0.0339
2,RRIRDRPPRLPRPRPRPNRVPRP,-0.023
3,RRIRDRPPRLPRPRPRPNSFPRP,-0.0585
4,RRIRDRPPRLPRPRPRPNSYPRP,0.179
5,RRIRDRPPRLPRPRPRPNVCPRP,-0.0195
6,RRIRDRPPRLPRPRPRPNVHPRP,-0.303
7,RRIRDRPPRLPRPRPRPNVVPRP,-0.0354
8,RRIRDRPPRLPRPRPRPNWDPRP,0.0503
9,RRIRDRPPRLPRPRPRPNWKPRP,-0.0238
10,RRIRDRPPRLPRPRPRPNWPPRP,0.0913
11,RRIRDRPPRLPRPRPRPNYPPRP,0.0151
12,RRIRDRPPRLPRPRPRPPALPRP,0.239
13,RRIRDRPPRLPRPRPRPPAQPRP,0.296
14,RRIRDRPPRLPRPRPRPPAVPRP,0.312
15,RRIRDRPPRLPRPRPRPPCEPRP,0.121
16,RRIRDRPPRLPRPRPRPPCSPRP,0.126
17,RRIRDRPPRLPRPRPRPPDIPRP,-0.0754
18,RRIRDRPPRLPRPRPRPPEDPRP,0.402
19,RRIRDRPPRLPRPRPRPPEMPRP,0.78
20,RRIRDRPPRLPRPRPRPPENPRP,0.856
21,RRIRDRPPRLPRPRPRPPEVPRP,0.705
22,RRIRDRPPRLPRPRPRPPHFPRP,0.173
23,RRIRDRPPRLPRPRPRPPHWPRP,0.322
24,RRIRDRPPRLPRPRPRPPIHPRP,-0.487
25,RRIRDRPPRLPRPRPRPPIIPRP,-0.0464

row,Sequence,shrunken log2 fold change
1,RRIRDRPPRLPRPRPRPPKQPRP,-0.0537
2,RRIRDRPPRLPRPRPRPPKRPRP,-0.0222
3,RRIRDRPPRLPRPRPRPPMTPRP,0.425
4,RRIRDRPPRLPRPRPRPPNCPRP,-0.0514
5,RRIRDRPPRLPRPRPRPPNVPRP,-0.0362
6,RRIRDRPPRLPRPRPRPPPYPRP,-0.0814
7,RRIRDRPPRLPRPRPRPPRAPRP,1.1
8,RRIRDRPPRLPRPRPRPPRVPRP,0.727
9,RRIRDRPPRLPRPRPRPPRWPRP,0.331
10,RRIRDRPPRLPRPRPRPPSDPRP,0.251
11,RRIRDRPPRLPRPRPRPPTAPRP,0.0444
12,RRIRDRPPRLPRPRPRPPTHPRP,0.21
13,RRIRDRPPRLPRPRPRPPVYPRP,-0.175
14,RRIRDRPPRLPRPRPRPPWCPRP,0.203
15,RRIRDRPPRLPRPRPRPPWMPRP,0.261
16,RRIRDRPPRLPRPRPRPPWRPRP,0.499
17,RRIRDRPPRLPRPRPRPPYEPRP,-0.0831
18,RRIRDRPPRLPRPRPRPQDAPRP,-0.103
19,RRIRDRPPRLPRPRPRPQEAPRP,-0.0652
20,RRIRDRPPRLPRPRPRPQENPRP,0.0153
21,RRIRDRPPRLPRPRPRPQFIPRP,-0.935
22,RRIRDRPPRLPRPRPRPQGLPRP,0.0467
23,RRIRDRPPRLPRPRPRPQHRPRP,-0.198
24,RRIRDRPPRLPRPRPRPQHTPRP,-0.403
25,RRIRDRPPRLPRPRPRPQIWPRP,0.352
